Reference: article PMC5437018
Read-outs that look alike come from different tables or passages of the source. One block for each substance: values may come before it.

Columns and labels:
[1] = molecular target: PP1 (Homo sapiens) (UniProt P62136); conditions: cited from earlier work
[2] = molecular target: PP1 (Homo sapiens) (UniProt P62136); conditions: cited from earlier work; remark: listed apart in the source
[3] = molecular target: PP1 (Homo sapiens) (UniProt P62136); conditions: cited from earlier work; remark: listed apart in the source
[4] = molecular target: PP1 (Homo sapiens) (UniProt P62136); conditions: cited from earlier work; remark: listed apart in the source
[5] = molecular target: Recombinant purified α-isoform of mammalian PP1 (residues 1–330), tag cleaved (mammalian) (UniProt P62136); assay: SPR; Biacore 3000; PP1 covalently coupled to a CM5 chip; Rif1 CRI, mutants and peptide injected at 20 µl/min in 10 mM Tris-HCl pH 7.5, 250 mM NaCl, 1 mM DTT, 2 mM MnCl2, 0.005% Tween 20; 1:1 binding model
Chain of Recombinant purified α-isoform of mammalian PP1 (residues 1–330), tag cleaved (mammalian) (P62136 whole entry, the tested form may be a part, canonical isoform): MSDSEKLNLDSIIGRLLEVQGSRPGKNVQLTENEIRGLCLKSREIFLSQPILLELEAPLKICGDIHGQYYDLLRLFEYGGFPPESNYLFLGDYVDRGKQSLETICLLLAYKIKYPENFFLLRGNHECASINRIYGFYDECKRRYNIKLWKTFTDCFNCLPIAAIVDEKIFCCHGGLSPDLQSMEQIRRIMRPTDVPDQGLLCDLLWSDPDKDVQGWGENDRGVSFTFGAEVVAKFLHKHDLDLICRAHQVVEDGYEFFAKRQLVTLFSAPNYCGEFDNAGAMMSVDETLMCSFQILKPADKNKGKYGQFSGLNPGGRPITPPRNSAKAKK

Chain of PP1 (Homo sapiens) (P62136 2-330): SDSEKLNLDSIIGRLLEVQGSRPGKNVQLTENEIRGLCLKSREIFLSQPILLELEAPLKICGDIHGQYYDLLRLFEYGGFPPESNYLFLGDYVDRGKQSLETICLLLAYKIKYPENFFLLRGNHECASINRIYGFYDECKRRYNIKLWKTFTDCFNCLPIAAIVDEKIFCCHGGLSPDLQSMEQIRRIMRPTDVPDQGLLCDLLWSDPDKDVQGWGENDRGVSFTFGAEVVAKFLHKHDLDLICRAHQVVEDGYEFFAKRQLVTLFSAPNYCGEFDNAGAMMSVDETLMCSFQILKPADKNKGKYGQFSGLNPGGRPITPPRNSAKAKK
Chain of NIPP1 (Q12972 whole entry): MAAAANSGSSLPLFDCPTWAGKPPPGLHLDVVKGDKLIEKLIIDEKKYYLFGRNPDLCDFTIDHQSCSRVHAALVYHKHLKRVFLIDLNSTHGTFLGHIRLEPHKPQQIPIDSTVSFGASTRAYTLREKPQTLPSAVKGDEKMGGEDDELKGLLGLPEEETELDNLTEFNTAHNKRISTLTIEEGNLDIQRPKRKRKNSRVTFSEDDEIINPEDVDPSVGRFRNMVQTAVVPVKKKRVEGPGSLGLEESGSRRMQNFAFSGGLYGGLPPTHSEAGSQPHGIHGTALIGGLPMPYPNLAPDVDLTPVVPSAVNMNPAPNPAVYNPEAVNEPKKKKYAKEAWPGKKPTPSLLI
Chain of spinophilin (O35274 417-494): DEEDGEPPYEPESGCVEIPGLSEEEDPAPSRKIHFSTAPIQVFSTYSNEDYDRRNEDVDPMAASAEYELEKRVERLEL
Chain of GADD34 (O75807 whole entry): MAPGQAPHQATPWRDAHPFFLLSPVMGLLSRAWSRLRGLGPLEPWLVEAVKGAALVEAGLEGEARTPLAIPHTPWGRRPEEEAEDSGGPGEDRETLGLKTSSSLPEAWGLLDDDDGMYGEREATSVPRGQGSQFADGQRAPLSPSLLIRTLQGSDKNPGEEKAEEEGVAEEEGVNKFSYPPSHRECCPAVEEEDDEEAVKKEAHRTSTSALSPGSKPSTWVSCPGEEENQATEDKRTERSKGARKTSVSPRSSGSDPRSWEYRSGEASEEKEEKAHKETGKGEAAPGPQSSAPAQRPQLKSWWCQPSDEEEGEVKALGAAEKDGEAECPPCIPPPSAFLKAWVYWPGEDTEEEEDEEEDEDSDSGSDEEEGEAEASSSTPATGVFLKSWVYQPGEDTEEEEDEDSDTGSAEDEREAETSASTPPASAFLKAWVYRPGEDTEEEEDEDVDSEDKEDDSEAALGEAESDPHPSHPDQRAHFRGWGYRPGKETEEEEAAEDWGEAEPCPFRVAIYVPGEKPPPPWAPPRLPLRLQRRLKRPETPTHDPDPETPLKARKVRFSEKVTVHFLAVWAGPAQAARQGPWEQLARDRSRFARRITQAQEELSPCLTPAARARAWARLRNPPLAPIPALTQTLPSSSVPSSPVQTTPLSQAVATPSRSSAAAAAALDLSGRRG
Chain of PNUTS (Q96QC0 whole entry): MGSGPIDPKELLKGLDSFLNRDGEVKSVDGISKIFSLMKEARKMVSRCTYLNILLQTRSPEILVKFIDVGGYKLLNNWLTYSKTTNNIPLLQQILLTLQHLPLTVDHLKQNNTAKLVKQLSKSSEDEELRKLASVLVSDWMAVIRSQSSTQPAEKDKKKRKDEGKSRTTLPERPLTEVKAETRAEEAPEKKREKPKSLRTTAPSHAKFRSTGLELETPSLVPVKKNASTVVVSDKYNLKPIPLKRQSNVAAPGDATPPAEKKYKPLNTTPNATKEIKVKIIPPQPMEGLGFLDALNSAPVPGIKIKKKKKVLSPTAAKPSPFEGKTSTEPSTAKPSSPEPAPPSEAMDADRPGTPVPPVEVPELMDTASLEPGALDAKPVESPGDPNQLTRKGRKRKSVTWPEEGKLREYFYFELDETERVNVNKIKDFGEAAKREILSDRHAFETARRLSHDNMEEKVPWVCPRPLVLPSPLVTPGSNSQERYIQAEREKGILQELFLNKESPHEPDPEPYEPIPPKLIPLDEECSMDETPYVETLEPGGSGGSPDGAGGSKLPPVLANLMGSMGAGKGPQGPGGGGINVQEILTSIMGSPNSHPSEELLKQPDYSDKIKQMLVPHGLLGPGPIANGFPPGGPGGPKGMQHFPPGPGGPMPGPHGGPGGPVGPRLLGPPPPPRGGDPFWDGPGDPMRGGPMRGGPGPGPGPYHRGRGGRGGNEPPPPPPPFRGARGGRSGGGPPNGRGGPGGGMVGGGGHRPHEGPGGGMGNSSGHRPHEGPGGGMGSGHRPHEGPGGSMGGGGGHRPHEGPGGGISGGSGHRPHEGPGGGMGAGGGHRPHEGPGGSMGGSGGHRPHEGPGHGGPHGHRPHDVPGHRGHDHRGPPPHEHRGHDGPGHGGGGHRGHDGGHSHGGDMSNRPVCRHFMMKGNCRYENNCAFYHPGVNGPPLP

Substance: NIPP1 (from UniProt Q12972)
Kd [1]: 73 nM

Substance: PNUTS (from UniProt Q96QC0)
Kd [2]: 8.7 nM

Substance: spinophilin (from UniProt O35274)
Kd [3]: 9.3 nM

Substance: GADD34 (from UniProt O75807)
Kd [4]: 62 nM

fold decrease in affinity against wild type [5]: 20 fold
Substance: Rif1 CRI (2093–2190) RVSF to RASF (from UniProt Q6PR54 2093-2190) (domain or fragment)

fold decrease in affinity against wild type [5]: 20 fold
Substance: Rif1 CRI (2093–2190) SILK to SAAA (from UniProt Q6PR54 2093-2190) (domain or fragment)

affinity as percent of the wild-type interaction [5]: < 0.1%
Substance: Rif1 CRI (2093–2190) RVSF to RVSA (from UniProt Q6PR54 2093-2190) (domain or fragment)
